Data on 17 molecules can be found in patent US20210380703A1 (RIGEL PHARMACEUTICALS, published 2021).

Experiment [1] addresses T1, biotinylated goat anti-human kappa light chain.
T1 construct: positive control of the ELISA
The experiment can be described thus: ELISA, positive control. Put shortly:
(§1)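 mAb binding by ELISA; antigens: hu ACVR2A, mu ACVR2A; pos ctrl biotinylated goat anti-hu kappa LC; neg ctrl hu Fc.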
(ELISA stands for enzyme-linked immunosorbent assay.)

For the next experiment, the target named is T2, human ACVR2A (human, UniProt P27037 20-135, limits assumed).
T2 construct: coated antigen of the initial ELISA; also called activin receptor, type II A
T2 sequence (P27037 20-135 limits assumed): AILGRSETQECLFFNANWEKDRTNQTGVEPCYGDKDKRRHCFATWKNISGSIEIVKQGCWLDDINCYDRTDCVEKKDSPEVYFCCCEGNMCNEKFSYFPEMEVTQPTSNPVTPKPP
The experiment can be described thus: ELISA. Put shortly:
as §1

For another experiment, the target named is T3, mouse ACVR2A (mouse, UniProt P27038 20-135, limits assumed).
T3 construct: coated antigen of the initial ELISA
T3 sequence (P27038 20-135 limits assumed): as the sequence (P27037 20-135 limits assumed) above, with K20R, V73I counted along it
The experiment can be described thus: ELISA. A digest of the protocol:
as §1
Note: test concentration or dose not given here.

B1: 374_B10 (antibody, V domains shown)
VH: EVQLLESGGGLVQPGGSLRLSCAASGFTFSSYSMNWVRQAPGKGLEWVSSINYNSGYTSYADSVKGRFTISRDNSKNTLYLQMNSLRAEDTAVYYCARGANWHDTHLDYWGQGTLVTVSS
VL: DIQMTQSPSSLSASVGDRVTITCRASQSILTYVNWYQQKPGKAPKLVIYAATSLASGVPSRFSGSGSGTDFTLTISSLQPEDFATYYCQQSYDTPLTFGGGTKVEIK
notes: Group III
For B1, the optical density in experiment [1] worked out at 3 OD; with human ACVR2A, 3.71 OD; in the experiment with mouse ACVR2A, 3.69 OD.

B2: 374_F07 (antibody, V domains shown)
VH: EVQLLESGGGLVQPGGSLRLSCAASGFTFDSYSMNWVRQAPGKGLEWVASINYNGGYTGYADSVKGRFTISRDNSKNTLYLQMNSLRAEDTAVYYCARGANWHDTHLDYWGQGTLVTVSS
VL: DIQMTQSPSSLSASVGDRVTITCRASQSILSYLNWYQQKPGKAPKLVIYAVTSLASGVPSRFSGSGSGTDFTLTISSLQPEDFATYYCQQSYESPLTFGGGTKVEIK
notes: Group III
In the case of B2, the optical density in experiment [1] came out at 3.21 OD; with human ACVR2A, 3.47 OD; with mouse ACVR2A, 3.54 OD.

B3: 374_E10 (antibody, V domains shown)
VH: EVQLLESGGGLVQPGGSLRLSCAASGFTFSSYSMNWVRQAPGKGLEWVSGINYNGGYKSYADSVKGRFTISRDNSKNTLYLQMNSLRAEDTAVYYCARGANWHDTALDYWGQGTLVTVSS
VL: DIQMTQSPSSLSASVGDRVTITCRASQSILSYLNWYQQKPGKAPKLLIYAATSRHSGVPSRFSGSGSGTDFTLTISSLQPEDFATYYCQQSYDSPLTFGGGTKVEIK
notes: Group III
Consider B3, for which the optical density in experiment [1] is 3.38 OD; with human ACVR2A it was 3.74 OD; with mouse ACVR2A it was 3.77 OD.

B4: 374_G09 (antibody, V domains shown)
VH: EVQLLESGGGLVQPGGSLRLSCAASGFTFSSYSMNWVRQAPGKGLEWVAGINYNGGYKGYADSVKGRFTISRDNSKNTLYLQMNSLRAEDTAVYYCARGANWHDTHLDYWGQGTLVTVSS
VL: DIQMTQSPSSLSASVGDRVTITCRASQSIVRYLNWYQQKPGKAPKLVIYAATSLASGVPSRFSGSGSGTDFTLTISSLQPEDFATYYCQQSYELPLTFGGGTKVEIK
notes: Group III
Turning to B4, the optical density is 3.26 OD in experiment [1], 3.66 OD with human ACVR2A and 3.6 OD in the experiment with mouse ACVR2A.

B5: 374_F06 (antibody, V domains shown)
VH: EVQLLESGGGLVQPGGSLRLSCAASGFTFSSYSMNWVRQAPGKGLEWVSGINYNGGYTSYADSVKGRFTISRDNSKNTLYLQMNSLRAEDTAVYYCARGANWHDTALDYWGQGTLVTVSS
VL: DIQMTQSPSSLSASVGDRVTITCRASQSIISYVNWYQQKPGKAPKLVIYAATSLHSGVPSRFSGSGSGTDFTLTISSLQPEDFATYYCQQSYSTPLTFGGGTKVEIK
notes: Group III
With B5, the optical density came to 3.18 OD in experiment [1], 3.72 OD with human ACVR2A and 3.7 OD in the experiment with mouse ACVR2A.

B6: 374_D07 (antibody, V domains shown)
VH: EVQLLESGGGLVQPGGSLRLSCAASGFTFDSYSMNWVRQAPGKGLEWVSGINYNSGYKSYADSVKGRFTISRDNSKNTLYLQMNSLRAEDTAVYYCARGANWHDTALDYWGQGTLVTVSS
VL: DIQMTQSPSSLSASVGDRVTITCRASQSIVSYLNWYQQKPGKAPKLVIYAATSLASGVPSRFSGSGSGTDFTLTISSLQPEDFATYYCQQSYNSPLTFGGGTKVEIK
notes: Group III
On to B6, for which the optical density stood at 3.26 OD in experiment [1], 3.71 OD with human ACVR2A and 3.68 OD in the experiment with mouse ACVR2A.

B7: 374_D05 (antibody, V domains shown)
VH: EVQLLESGGGLVQPGGSLRLSCAASGFTFDSYSMNWVRQAPGKGLEWVSGINYNSGYTGYADSVKGRFTISRDNSKNTLYLQMNSLRAEDTAVYYCARGANWHDTHLDYWGQGTLVTVSS
VL: DIQMTQSPSSLSASVGDRVTITCRASQSILTYLNWYQQKPGKAPKLLIYAATSRASGVPSRFSGSGSGTDFTLTISSLQPEDFATYYCQQSYDTPLTFGGGTKVEIK
notes: Group III
Take B7: the optical density in experiment [1] is 3.15 OD; with human ACVR2A, 3.43 OD; with mouse ACVR2A, 3.56 OD.

B8: 374_C12 (antibody, V domains shown)
VH: EVQLLESGGGLVQPGGSLRLSCAASGFTFSSYSMNWVRQAPGKGLEWVAGINYNGGYKSYADSVKGRFTISRDNSKNTLYLQMNSLRAEDTAVYYCARGANWHDTALDYWGQGTLVTVSS
VL: DIQMTQSPSSLSASVGDRVTITCRASQSILTYLNWYQQKPGKAPKLVIYAATSRASGVPSRFSGSGSGTDFTLTISSLQPEDFATYYCQQSDNSPLTFGGGTKVEIK
notes: Group III
For the molecule B8, the optical density in experiment [1] was found to be 3.15 OD; in the experiment with human ACVR2A, 3.67 OD; with mouse ACVR2A it was 3.33 OD.

B9: 374_E12 (antibody, V domains shown)
VH: EVQLLESGGGLVQPGGSLRLSCAASGFTFSSYSMNWVRQAPGKGLEWVSGINYNGGYKSYADSVKGRFTISRDNSKNTLYLQMNSLRAEDTAVYYCARGANWHDTALDYWGQGTLVTVSS
VL: DIQMTQSPSSLSASVGDRVTITCRASQSILSYLNWYQQKPGKAPKLVIYAATSRASGVPSRFSGSGSGTDFTLTISSLQPEDFATYYCQQSYDNPLTFGGGTKVEIK
notes: Group III
As to B9, the optical density was 3.29 OD in experiment [1], 3.61 OD with human ACVR2A and 3.28 OD with mouse ACVR2A.

B10: 374_C01 (antibody, V domains shown)
VH: EVQLLESGGGLVQPGGSLRLSCAASGFTFDSYGMNWVRQAPGKGLEWVSGINYNSGYKSYADSVKGRFTISRDNSKNTLYLQMNSLRAEDTAVYYCARGANWHDTALDYWGQGTLVTVSS
VL: DIQMTQSPSSLSASVGDRVTITCRASQSILTYLNWYQQKPGKAPKLLIYAATSRASGVPSRFSGSGSGTDFTLTISSLQPEDFATYYCQQSYETPLTFGGGTKVEIK
notes: Group III
Consider B10, for which the optical density in experiment [1] amounted to 3.08 OD; in the experiment with human ACVR2A, 2.69 OD; in the experiment with mouse ACVR2A it was 2.93 OD.

B11: 374_C09 (antibody, V domains shown)
VH: EVQLLESGGGLVQPGGSLRLSCAASGFTFDSYGMNWVRQAPGKGLEWVSSINYNGGYKGYADSVKGRFTISRDNSKNTLYLQMNSLRAEDTAVYYCARGANWHDTHLDYWGQGTLVTVSS
VL: DIQMTQSPSSLSASVGDRVTITCRASQSIVSYLNWYQQKPGKAPKLVIYAATSRASGVPSRFSGSGSGTDFTLTISSLQPEDFATYYCQQSYELPLTFGGGTKVEIK
notes: Group III
B11: the optical density in experiment [1] amounted to 3.14 OD; with human ACVR2A, 3.43 OD; with mouse ACVR2A it was 3.51 OD.

B12: 374_G08 (antibody, V domains shown)
VH: EVQLLESGGGLVQPGGSLRLSCAASGFTFDSYSMNWVRQAPGKGLEWVSGINYNGGYTSYADSVKGRFTISRDNSKNTLYLQMNSLRAEDTAVYYCARGANWHDTALDYWGQGTLVTVSS
VL: DIQMTQSPSSLSASVGDRVTITCRASQSILTYVNWYQQKPGKAPKLVIYAATSRASGVPSRFSGSGSGTDFTLTISSLQPEDFATYYCQQSYDSPLTFGGGTKVEIK
notes: Group III
In the case of B12, the optical density turned out to be 3.21 OD in experiment [1], 3.71 OD with human ACVR2A and 3.7 OD with mouse ACVR2A.

B13: 374_D06 (antibody, V domains shown)
VH: EVQLLESGGGLVQPGGSLRLSCAASGFTFSSYSMNWVRQAPGKGLEWVSGINYNGGYTSYADSVKGRFTISRDNSKNTLYLQMNSLRAEDTAVYYCARGANWHDTALDYWGQGTLVTVSS
VL: DIQMTQSPSSLSASVGDRVTITCRASQSILSYVNWYQQKPGKAPKLVIYAATSRASGVPSRFSGSGSGTDFTLTISSLQPEDFATYYCQQSYDSPLTFGGGTKVEIK
notes: Group III
Consider B13, for which the figures for the optical density (in experiment [1]; in the experiment with human ACVR2A; with mouse ACVR2A) were 3.12 OD, 3.78 OD and 3.67 OD, respectively.

B14: 374_D10 (antibody, V domains shown)
VH: EVQLLESGGGLVQPGGSLRLSCAASGFTFSSYGMHWVRQAPGKGLEWVASINYNGGYTSYADSVKGRFTISRDNSKNTLYLQMNSLRAEDTAVYYCARGANWHDTHLDYWGQGTLVTVSS
VL: DIQMTQSPSSLSASVGDRVTITCRASQSILTYVNWYQQKPGKAPKLLIYAATSRASGVPSRFSGSGSGTDFTLTISSLQPEDFATYYCQQSYDNPLTFGGGTKVEIK
notes: Group III
Take B14: the optical density in experiment [1] turned out to be 3.27 OD; with human ACVR2A it was 3.56 OD; with mouse ACVR2A, 3.64 OD.

B15: 374_D03 (antibody, V domains shown)
VH: EVQLLESGGGLVQPGGSLRLSCAASGFTFDSYSMNWVRQAPGKGLEWVAGINYNGGYKSYADSVKGRFTISRDNSKNTLYLQMNSLRAEDTAVYYCARGANWHDTHLDYWGQGTLVTVSS
VL: DIQMTQSPSSLSASVGDRVTITCRASQSIVTYLNWYQQKPGKAPKLLIYAATSRASGVPSRFSGSGSGTDFTLTISSLQPEDFATYYCQQSYDTPLTFGGGTKVEIK
notes: Group III
As for B15, the optical density in experiment [1] was found to be 3.02 OD; with human ACVR2A it was 3.3 OD; in the experiment with mouse ACVR2A, 3.48 OD.

B16: 374_F08 (antibody, V domains shown)
VH: EVQLLESGGGLVQPGGSLRLSCAASGFTFDSYSMNWVRQAPGKGLEWVSGINYNGGYKSYADSVKGRFTISRDNSKNTLYLQMNSLRAEDTAVYYCARGANWHDTALDYWGQGTLVTVSS
VL: DIQMTQSPSSLSASVGDRVTITCRASQSILTYVNWYQQKPGKAPKLVIYAVTSRASGVPSRFSGSGSGTDFTLTISSLQPEDFATYYCQQSYDTPLTFGGGTKVEIK
notes: Group III
On to B16, for which the optical density turned out to be 3.18 OD in experiment [1], 3.67 OD with human ACVR2A and 3.68 OD with mouse ACVR2A.

B17: 374_G03 (antibody, V domains shown)
VH: EVQLLESGGGLVQPGGSLRLSCAASGFTFSDYSMNWVRQAPGKGLEWVSGINYNGGYTSYADSVKGRFTISRDNSKNTLYLQMNSLRAEDTAVYYCARGANWHDTALDYWGQGTLVTVSS
VL: DIQMTQSPSSLSASVGDRVTITCRASQSISSYLNWYQQKPGKAPKLVIYAATSRASGVPSRFSGSGSGTDFTLTISSLQPEDFATYYCQQSDDTPLTFGGGTKVEIK
notes: Group III
As to B17, the optical density in experiment [1] came to 3.22 OD; with human ACVR2A it was 3.79 OD; with mouse ACVR2A, 3.64 OD.
